Data reported in patent US20110243948A1 (LEXICON PHARMACEUTICALS, published 2011).
Several values for one entry are separate records, joined by “and”; a condition that tells them apart may be missing. Identical values can stand only once.

Assays:
[1] = biological target: T1, hANGPTL3T (full-length HIS-tagged human ANGPTL3) (human, UniProt Q9Y5C1 17-460); assay: ELISA (data not shown)
T1 construct: Human ANGPTL3 with a glycine and His6 at the C-terminus, purified from conditioned medium of infected CHO cells; also called full-length ANGPTL3T; human ANGPTL3T
T1 sequence: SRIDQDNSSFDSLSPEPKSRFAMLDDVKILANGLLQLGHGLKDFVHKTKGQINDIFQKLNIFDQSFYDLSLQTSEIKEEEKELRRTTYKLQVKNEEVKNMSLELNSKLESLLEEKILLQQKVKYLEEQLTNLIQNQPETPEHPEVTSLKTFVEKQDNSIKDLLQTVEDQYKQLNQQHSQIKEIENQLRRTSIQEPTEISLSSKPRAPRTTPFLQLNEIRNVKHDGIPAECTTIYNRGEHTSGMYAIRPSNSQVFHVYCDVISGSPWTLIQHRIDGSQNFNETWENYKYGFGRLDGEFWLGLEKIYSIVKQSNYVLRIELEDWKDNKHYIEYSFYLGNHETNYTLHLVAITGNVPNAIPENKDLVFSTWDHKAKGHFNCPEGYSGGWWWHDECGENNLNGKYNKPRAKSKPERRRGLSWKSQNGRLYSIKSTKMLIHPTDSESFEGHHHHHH

[2] = biological target: T2, SP1 peptide (synthetic peptide with the sequence of the SP1 region of ANGPTL3) (mouse and human (the sequence is the …)); assay: SPR (BIACORE 3000), antibody captured on anti-mouse IgG Fc chip, SP1 peptide injected, 1:1 model
T2 construct: also called ANGPTL3 SP1; hANGPTL3 SP1 peptide
T2 peptide: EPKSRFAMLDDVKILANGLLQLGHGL
Method: (§1) The BIACORE® 3000 is a real-time biomolecular analysis system for detecting and quantifying protein-protein interactions using surface plasmon resonance technology. The following affinity constants were determined according to the manufacturer's instructions for the BIACORE® 3000 system: equilibrium dissociation constant (KD), association rate constant (kₒₙ), and dissociation rate constant (koff).
The BIACORE CM5 chip surface was coated with an anti-mouse IgG Fc by coupling 90 μg/ml of ImmunoPure Goat Anti-Mouse IgG Fc (Product No.: 31170, Pierce, Rockford, Ill. 61105) to the chip surface using an Amine Coupling Kit (Product No.: BR-1000-50, GE Healthcare, Uppsala Sweden). The antibody was then captured on the anti-mouse IgG Fc BIACORE chip surface by injecting the antibody at a flow rate of 10 μl/min for 30 sec. The association and dissociation phases, which are used to determine kₒₙ and koff constants, were generated by first injecting the SP1 peptide into the BIACORE® 3000 system having an antibody-coated chip surface for 2 minutes at a flow rate of 30 μl/min. […] The injection phase was used to determine the association rate constant, or kₒₙ. Following each injection, the SP1 peptide was dissociated from the antibody by flowing BIACORE HBS-EP buffer (Product No.: BR-1001-88, GE Healthcare, Uppsala Sweden) for 5 minutes over the peptide-antibody complex on the BIACORE CM5 chip surface. This dissociation phase was used to determine the dissociation rate constant, or koff. Prior to the next injection, the BIACORE chip surface was regenerated by injecting 10 mM HCl at a flow rate of 100 μl/min for 30 seconds.

[3] = biological target: T3, mouse ANGPTL3 (mouse, UniProt Q9R182 17-455, limits assumed); assay: cell-based or functional assay
T3 sequence: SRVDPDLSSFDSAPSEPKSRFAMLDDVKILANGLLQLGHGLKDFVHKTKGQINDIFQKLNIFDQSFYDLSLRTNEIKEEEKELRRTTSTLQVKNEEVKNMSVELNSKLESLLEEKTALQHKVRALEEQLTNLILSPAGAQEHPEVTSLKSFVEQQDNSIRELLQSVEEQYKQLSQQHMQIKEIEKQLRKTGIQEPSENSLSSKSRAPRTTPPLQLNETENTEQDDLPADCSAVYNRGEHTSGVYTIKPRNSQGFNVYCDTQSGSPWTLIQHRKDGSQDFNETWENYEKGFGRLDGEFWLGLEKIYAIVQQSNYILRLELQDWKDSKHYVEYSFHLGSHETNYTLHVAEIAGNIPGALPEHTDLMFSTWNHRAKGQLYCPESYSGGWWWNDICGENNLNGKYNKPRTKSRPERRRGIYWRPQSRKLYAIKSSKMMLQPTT

[4] = biological target: T4, N'-hANGPTL3T (human, UniProt Q9Y5C1 20-243); assay: SPR (BIACORE 3000), antigen amine-coupled to CM5 chip, Fab injected, 1:1 model
T4 construct: also called rN'-hANGPTL3T
T4 sequence: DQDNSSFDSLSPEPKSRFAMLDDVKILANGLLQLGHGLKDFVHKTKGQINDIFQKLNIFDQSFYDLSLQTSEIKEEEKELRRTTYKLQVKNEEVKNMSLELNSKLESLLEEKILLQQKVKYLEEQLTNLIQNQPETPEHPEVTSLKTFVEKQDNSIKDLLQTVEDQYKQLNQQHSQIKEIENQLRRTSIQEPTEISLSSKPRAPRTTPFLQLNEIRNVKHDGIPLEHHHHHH
Method: as §1
(§2) Affinity constants of the 4.7.1, 4.8.3, and 4.9.1 antibodies for N′-hANGPTL3T and hANGPTL3T protein antigens were each determined as follows. The BIACORE CM5 chip surface was coated with a protein antigen by coupling either 10 μg/ml of N′-hANGPTL3T or 20 μg/ml of hANGPTL3T to the chip surface using an Amine Coupling Kit (Product No.: BR-1000-50, GE Healthcare, Uppsala Sweden). The association and dissociation phases, which are used to determine the kₒₙ and koff constants, were generated by first injecting a Fab fragment of the antibody (generated using a Fab Preparation Kit (Product No.: 44885, Pierce, Rockford, Ill. 61105) according to the manufacturer's instructions) into the BIACORE® 3000 system having a coated chip surface for 2 minutes at a flow rate of 30 μl/min. […] The injection phase was used to determine the association rate constant, or kₒₙ. Following each injection, the Fab fragment was dissociated from the protein antigen by flowing BIACORE HBS-EP buffer (Product No.: BR-1001-88, GE Healthcare, Uppsala Sweden) for 5 minutes over the antigen-Fab complex on the BIACORE CM5 chip surface. This dissociation phase was used to determine the dissociation rate constant, or koff. Prior to the next injection, the BIACORE chip surface was regenerated by injecting 10 mM HCl at a flow rate of 100 μl/min for 30 seconds.

[5] = biological target: T1, hANGPTL3T (full-length HIS-tagged human …); assay: as above
Method: as §1, §2

[6] = biological target: T2, SP1 peptide (synthetic peptide with the …); assay: antibody capture ELISA (FIG. 9)

B1: antibody 5.50 (antibody, IgG2b, V domains shown)
VH: EVQLQQSGPELVKPGASVKISCKASGFTFTDYYMNWVKQSHGESLEWIGDINPNNGGTIYNQKFRGKATLTVDKSSSTAYMELRSLTSEDSAVYYCVRLPWYFDVWGTGTTVTVSS
VL: DVLMTQTPLSLPVSLGDQASISCRSSQSILHSNGNTYLEWFLQKPGQSPKLLIYKVSNRFSGVPDRFSGSGSGTDFTLKISRVEAEDLGVYYCFQGSHVPYTFGGGTKLEIKR
notes: Biotinylated in the alanine-scanning ELISA
- binding result [1]: binds
- Kd [2]: 1.78 nM
- koff [2]: 0.00193 s⁻¹
- kon [2]: 1.08e+06 M⁻¹ s⁻¹

B2: antibody 4.7.1 (antibody, IgG2b, V domains shown)
VH: EVQLQQSGPELVKPGASVKMSCKASGYTFTSYVMHWVKQKPGQGLEWIGYFNPYNDGTKYNEKFKGKATLTSDKSSSTAYMELSSLTSEDSAVYYCAREGDYYGYFDYWGQGTTLTVSS
VL: DIQMTQTTSSLSASLGDRVTISCRASQDISNFLNWYQQKPDGTVKLLIYYTSRLHSGVPSRFSGSGSGTDYSLTISNLEQEDIATYFCQQGNTLPPTFGGGTKLEIKR
notes: as for B1
- Kd [2]: 26.1 nM
- koff [2]: 0.00546 s⁻¹
- kon [2]: 209000 M⁻¹ s⁻¹
- rescue of LPL activity (percentage increase in LPL activity in the presence of both ANGPTL3 and anti-ANGPTL3 antibody relative to ANGPTL3 alone) [3]: > 50%

B3: Fab fragment of antibody 4.7.1 (Fab, V domains shown)
VH: EVQLQQSGPELVKPGASVKMSCKASGYTFTSYVMHWVKQKPGQGLEWIGYFNPYNDGTKYNEKFKGKATLTSDKSSSTAYMELSSLTSEDSAVYYCAREGDYYGYFDYWGQGTTLTVSS
VL: DIQMTQTTSSLSASLGDRVTISCRASQDISNFLNWYQQKPDGTVKLLIYYTSRLHSGVPSRFSGSGSGTDYSLTISNLEQEDIATYFCQQGNTLPPTFGGGTKLEIKR
- Kd [4]: 49.5 nM and 77.5 nM
- koff [4]: 0.00915 s⁻¹ and 0.00899 s⁻¹
- kon [4]: 185000 M⁻¹ s⁻¹ and 116000 M⁻¹ s⁻¹
- Kd [5]: 45.3 nM and 117 nM
- koff [5]: 0.00796 s⁻¹ and 0.00953 s⁻¹
- kon [5]: 176000 M⁻¹ s⁻¹ and 81200 M⁻¹ s⁻¹

B4: Fab fragment of antibody 4.9.1 (Fab, V domains shown)
VH: EVQLQQSGPELVKPGASVKMSCKASGYTFTSYVMHWVKQKPGQGLEWIGYINPYNDGTKYNENFKGKATLTSDKSSSTAYMEFSSLTSEDSAVYYCAREGDYYGYFDYWGQGTTLTVSS
VL: DIQMTQTTSSLSASLGDRVTISCRASQDIRNYLNWYQQKPDGTVKLLIYYTSRLHSGVPSRFSGSGSGTDYSLTISNLEQEDIATYFCQQGNTLPPTFGGGTKLEIKR
- Kd [4]: 45.4 nM and 55 nM
- koff [4]: 0.00593 s⁻¹ and 0.00734 s⁻¹
- kon [4]: 131000 M⁻¹ s⁻¹ and 133000 M⁻¹ s⁻¹
- Kd [5]: 48.1 nM and 45.2 nM
- koff [5]: 0.00622 s⁻¹ and 0.00777 s⁻¹
- kon [5]: 129000 M⁻¹ s⁻¹ and 172000 M⁻¹ s⁻¹

B5: Fab fragment of antibody 4.8.3 (Fab, V domains shown)
VH: EVQLQQSGPELVKPGASVKMSCKASGYTFISCVMHWVKQKPGQGLEWIGYINPYNDGTKYNEKFKGKATLTSDKSSSTAYMELSSLTSEDSAVYYCAREGDYYGYFDYWGQGTTLTVSS
VL: EIQMTQTTSSLSASLGDRVTISCWASQDINNYLNWYQQKPDGTVKLLIYYTSRLHSGVPSRFSGSGSGTDYSLTISNLKQEDIATYFCQQGNTLPPTFGGGTKLEIKR
- Kd [4]: 210 nM and 251 nM
- koff [4]: 0.019 s⁻¹ and 0.0275 s⁻¹
- kon [4]: 90000 M⁻¹ s⁻¹ and 109000 M⁻¹ s⁻¹
- Kd [5]: 970 nM and 450 nM
- koff [5]: 0.0216 s⁻¹ and 0.0273 s⁻¹
- kon [5]: 22300 M⁻¹ s⁻¹ and 60000 M⁻¹ s⁻¹

B6: antibody 4.9.1 (antibody, IgG1, V domains shown)
VH: EVQLQQSGPELVKPGASVKMSCKASGYTFTSYVMHWVKQKPGQGLEWIGYINPYNDGTKYNENFKGKATLTSDKSSSTAYMEFSSLTSEDSAVYYCAREGDYYGYFDYWGQGTTLTVSS
VL: DIQMTQTTSSLSASLGDRVTISCRASQDIRNYLNWYQQKPDGTVKLLIYYTSRLHSGVPSRFSGSGSGTDYSLTISNLEQEDIATYFCQQGNTLPPTFGGGTKLEIKR
notes: as for B1
- Kd [2]: 46.1 nM
- koff [2]: 0.00778 s⁻¹
- kon [2]: 169000 M⁻¹ s⁻¹
- rescue of LPL activity (percentage increase in LPL activity in the presence of both ANGPTL3 and anti-ANGPTL3 antibody relative to ANGPTL3 alone) [3]: > 50%

B7: antibody 4.8.3 (antibody, IgG2a, V domains shown)
VH: EVQLQQSGPELVKPGASVKMSCKASGYTFISCVMHWVKQKPGQGLEWIGYINPYNDGTKYNEKFKGKATLTSDKSSSTAYMELSSLTSEDSAVYYCAREGDYYGYFDYWGQGTTLTVSS
VL: EIQMTQTTSSLSASLGDRVTISCWASQDINNYLNWYQQKPDGTVKLLIYYTSRLHSGVPSRFSGSGSGTDYSLTISNLKQEDIATYFCQQGNTLPPTFGGGTKLEIKR
notes: as for B1
- binding result [6]: binds
- rescue of LPL activity (percentage increase in LPL activity in the presence of both ANGPTL3 and anti-ANGPTL3 antibody relative to ANGPTL3 alone) [3]: > 50%

B8: antibody 5.35 (antibody, IgG2a, V domains shown)
VH: QVTLKESGPGILHPSQTLTLTCSFSGFSLNTFGLAVGWIRQPSGKGLEWLGHIWWDDHKYYNGVLKSRLTISKDSSKKQVFLRIANVDTADTARYYCARLETGTGFAYWGQGTLVTVSA
VL: DIVLTQSTPSVPVTPGESVSISCRSSKSLLDSNGITYLYWFLQRPGQSPQLLIYRMSKLASGVPDRFSGSGSETAFTLRISRVEAEDVGVYYCMQPLEYPFTFGAGTKLELNG
notes: as for B1
- binding result [1]: binds
- Kd [2]: 1.8 nM
- koff [2]: 0.0015 s⁻¹
- kon [2]: 835000 M⁻¹ s⁻¹
